Measured values published in patent publication US20090130105A1 (Biogen, published 2009).

What follows are binders tested against T1, human IGF-1R(1-903)-Fc (human, UniProt P08069 31-933) (assay: biolayer interferometry (Octet), IGF-1R Fc on Protein A sensors, scFv culture supernatant).
T1 construct: also called hIGF-1R-Fc; SDWT; not shown: human IgG1 Fc, C-terminal tag
Parameters: unit not given here
From the text: Individual transformed colonies were picked into deep-well 96 well dishes and processed for screening as described above. […] For off-rate analyses IGF-1R Fc was immobilized onto the surface of Protein A biosensors. […] ScFvs were allowed to bind to immobilized IGF-1R Fc for 300-seconds. Off-rate was subsequently assayed for 600 seconds.

T1 sequence (P08069 31-933): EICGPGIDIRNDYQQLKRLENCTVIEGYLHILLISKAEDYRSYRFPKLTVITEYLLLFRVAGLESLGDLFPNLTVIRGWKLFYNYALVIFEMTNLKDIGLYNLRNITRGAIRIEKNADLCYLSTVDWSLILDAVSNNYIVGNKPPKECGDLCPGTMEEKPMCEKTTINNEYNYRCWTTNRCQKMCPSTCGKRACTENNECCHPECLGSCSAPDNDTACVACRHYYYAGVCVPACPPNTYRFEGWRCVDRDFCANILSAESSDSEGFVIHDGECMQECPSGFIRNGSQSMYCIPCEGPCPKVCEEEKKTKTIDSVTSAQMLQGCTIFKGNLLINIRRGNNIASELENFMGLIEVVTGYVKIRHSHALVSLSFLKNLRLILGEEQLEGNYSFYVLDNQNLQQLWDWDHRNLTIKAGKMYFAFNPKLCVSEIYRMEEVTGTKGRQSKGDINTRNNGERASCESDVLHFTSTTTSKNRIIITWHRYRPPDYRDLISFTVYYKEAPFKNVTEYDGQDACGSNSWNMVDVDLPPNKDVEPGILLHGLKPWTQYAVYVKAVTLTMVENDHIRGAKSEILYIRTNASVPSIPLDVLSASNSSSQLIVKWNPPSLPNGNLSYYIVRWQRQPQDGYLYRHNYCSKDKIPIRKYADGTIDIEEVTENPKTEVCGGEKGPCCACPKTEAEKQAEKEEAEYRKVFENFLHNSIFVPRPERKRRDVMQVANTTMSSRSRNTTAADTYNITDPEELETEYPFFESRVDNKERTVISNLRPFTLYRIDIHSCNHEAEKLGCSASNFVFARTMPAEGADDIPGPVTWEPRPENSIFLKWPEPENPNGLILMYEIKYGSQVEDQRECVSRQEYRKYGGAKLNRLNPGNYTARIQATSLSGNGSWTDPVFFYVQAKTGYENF

Binder | Kd (1/sec), off-rate as tabulated (XWU092 = 1.00)
conventional C06 (VL/GS3/VH) scFv (pXWU092) (scFv, also called WT C06 scFv) scFv: DIQMTQSPLSLSASVGDRVTITCQASRDIRNYLNWYQQKPGKAPKLLIYDASSLQTGVPSRFGGSGSGTDFSFTIGSLQPEDIATYYCQQFDSLPHTFGQGTKLEIKGGGGSGGGGSGGGGSEVQLLESGGGLVQPGGSLRLSCAASGFTFSIYRMQWVRQAPGKGLEWVSGISPSGGTTWYADSVKGRFTISRDNSKNTLYLQMNSLRAEDTAVYYCARWSGGSGYAFDIWGQGTMVTVSS | 1
MJF045, stabilized C06 (I83E) scFv (scFv, Variant of pXWU092 with VL I83E (Kabat); also called C06 VL I83E scFv) scFv: DIQMTQSPLSLSASVGDRVTITCQASRDIRNYLNWYQQKPGKAPKLLIYDASSLQTGVPSRFGGSGSGTDFSFTIGSLQPEDEATYYCQQFDSLPHTFGQGTKLEIKGGGGSGGGGSGGGGSEVQLLESGGGLVQPGGSLRLSCAASGFTFSIYRMQWVRQAPGKGLEWVSGISPSGGTTWYADSVKGRFTISRDNSKNTLYLQMNSLRAEDTAVYYCARWSGGSGYAFDIWGQGTMVTVSS | 1.47
MJF018, C06 (VL/GS3/VH) scFv with VL V15N (scFv, Kabat positions) scFv: DIQMTQSPLSLSASNGDRVTITCQASRDIRNYLNWYQQKPGKAPKLLIYDASSLQTGVPSRFGGSGSGTDFSFTIGSLQPEDIATYYCQQFDSLPHTFGQGTKLEIKGGGGSGGGGSGGGGSEVQLLESGGGLVQPGGSLRLSCAASGFTFSIYRMQWVRQAPGKGLEWVSGISPSGGTTWYADSVKGRFTISRDNSKNTLYLQMNSLRAEDTAVYYCARWSGGSGYAFDIWGQGTMVTVSSDDDKSFLEQKLISEEDLNSAVDHHHHHH | 1.16
MJF025, C06 (VL/GS3/VH) scFv with VL V15P (scFv, Kabat positions) scFv: DIQMTQSPLSLSASPGDRVTITCQASRDIRNYLNWYQQKPGKAPKLLIYDASSLQTGVPSRFGGSGSGTDFSFTIGSLQPEDIATYYCQQFDSLPHTFGQGTKLEIKGGGGSGGGGSGGGGSEVQLLESGGGLVQPGGSLRLSCAASGFTFSIYRMQWVRQAPGKGLEWVSGISPSGGTTWYADSVKGRFTISRDNSKNTLYLQMNSLRAEDTAVYYCARWSGGSGYAFDIWGQGTMVTVSSDDDKSFLEQKLISEEDLNSAVDHHHHHH | 1.18
MJF029, C06 (VL/GS3/VH) scFv with VL T20R, R30Y (scFv, Kabat positions) scFv: DIQMTQSPLSLSASVGDRVRITCQASRDIYNYLNWYQQKPGKAPKLLIYDASSLQTGVPSRFGGSGSGTDFSFTIGSLQPEDIATYYCQQFDSLPHTFGQGTKLEIKGGGGSGGGGSGGGGSEVQLLESGGGLVQPGGSLRLSCAASGFTFSIYRMQWVRQAPGKGLEWVSGISPSGGTTWYADSVKGRFTISRDNSKNTLYLQMNSLRAEDTAVYYCARWSGGSGYAFDIWGQGTMVTVSSDDDKSFLEQKLISEEDLNSAVDHHHHHH | 0.68
MJF017, C06 (VL/GS3/VH) scFv with VL T74S (scFv, Kabat positions) scFv: DIQMTQSPLSLSASVGDRVTITCQASRDIRNYLNWYQQKPGKAPKLLIYDASSLQTGVPSRFGGSGSGTDFSFSIGSLQPEDIATYYCQQFDSLPHTFGQGTKLEIKGGGGSGGGGSGGGGSEVQLLESGGGLVQPGGSLRLSCAASGFTFSIYRMQWVRQAPGKGLEWVSGISPSGGTTWYADSVKGRFTISRDNSKNTLYLQMNSLRAEDTAVYYCARWSGGSGYAFDIWGQGTMVTVSSDDDKSFLEQKLISEEDLNSAVDHHHHHH | 1.02
MJF031, C06 (VL/GS3/VH) scFv with VL R30N (scFv, Kabat positions) scFv: DIQMTQSPLSLSASVGDRVTITCQASRDINNYLNWYQQKPGKAPKLLIYDASSLQTGVPSRFGGSGSGTDFSFTIGSLQPEDIATYYCQQFDSLPHTFGQGTKLEIKGGGGSGGGGSGGGGSEVQLLESGGGLVQPGGSLRLSCAASGFTFSIYRMQWVRQAPGKGLEWVSGISPSGGTTWYADSVKGRFTISRDNSKNTLYLQMNSLRAEDTAVYYCARWSGGSGYAFDIWGQGTMVTVSSDDDKSFLEQKLISEEDLNSAVDHHHHHH | 0.59
MJF016, C06 (VL/GS3/VH) scFv with VL D70E (scFv, Kabat positions) scFv: DIQMTQSPLSLSASVGDRVTITCQASRDIRNYLNWYQQKPGKAPKLLIYDASSLQTGVPSRFGGSGSGTEFSFTIGSLQPEDIATYYCQQFDSLPHTFGQGTKLEIKGGGGSGGGGSGGGGSEVQLLESGGGLVQPGGSLRLSCAASGFTFSIYRMQWVRQAPGKGLEWVSGISPSGGTTWYADSVKGRFTISRDNSKNTLYLQMNSLRAEDTAVYYCARWSGGSGYAFDIWGQGTMVTVSSDDDKSFLEQKLISEEDLNSAVDHHHHHH | 1.03
MJF026, C06 (VL/GS3/VH) scFv with VL V15S; VH T110V (scFv, name in Kabat numbering, Kabat positions) scFv: DIQMTQSPLSLSASSGDRVTITCQASRDIRNYLNWYQQKPGKAPKLLIYDASSLQTGVPSRFGGSGSGTDFSFTIGSLQPEDIATYYCQQFDSLPHTFGQGTKLEIKGGGGSGGGGSGGGGSEVQLLESGGGLVQPGGSLRLSCAASGFTFSIYRMQWVRQAPGKGLEWVSGISPSGGTTWYADSVKGRFTISRDNSKNTLYLQMNSLRAEDTAVYYCARWSGGSGYAFDIWGQGTMVVVSSDDDKSFLEQKLISEEDLNSAVDHHHHHH | 0.99
MJF014, C06 (VL/GS3/VH) scFv with VL M4L (scFv, Kabat positions) scFv: DIQLTQSPLSLSASVGDRVTITCQASRDIRNYLNWYQQKPGKAPKLLIYDASSLQTGVPSRFGGSGSGTDFSFTIGSLQPEDIATYYCQQFDSLPHTFGQGTKLEIKGGGGSGGGGSGGGGSEVQLLESGGGLVQPGGSLRLSCAASGFTFSIYRMQWVRQAPGKGLEWVSGISPSGGTTWYADSVKGRFTISRDNSKNTLYLQMNSLRAEDTAVYYCARWSGGSGYAFDIWGQGTMVTVSSDDDKSFLEQKLISEEDLNSAVDHHHHHH | 0.86
MJF015, C06 (VL/GS3/VH) scFv with VH W47F (scFv, name in Kabat numbering, Kabat positions) scFv: DIQMTQSPLSLSASVGDRVTITCQASRDIRNYLNWYQQKPGKAPKLLIYDASSLQTGVPSRFGGSGSGTDFSFTIGSLQPEDIATYYCQQFDSLPHTFGQGTKLEIKGGGGSGGGGSGGGGSEVQLLESGGGLVQPGGSLRLSCAASGFTFSIYRMQWVRQAPGKGLEFVSGISPSGGTTWYADSVKGRFTISRDNSKNTLYLQMNSLRAEDTAVYYCARWSGGSGYAFDIWGQGTMVTVSSDDDKSFLEQKLISEEDLNSAVDHHHHHH | 1.37
MJF020, C06 (VL/GS3/VH) scFv with VL V15E (scFv, Kabat positions) scFv: DIQMTQSPLSLSASEGDRVTITCQASRDIRNYLNWYQQKPGKAPKLLIYDASSLQTGVPSRFGGSGSGTDFSFTIGSLQPEDIATYYCQQFDSLPHTFGQGTKLEIKGGGGSGGGGSGGGGSEVQLLESGGGLVQPGGSLRLSCAASGFTFSIYRMQWVRQAPGKGLEWVSGISPSGGTTWYADSVKGRFTISRDNSKNTLYLQMNSLRAEDTAVYYCARWSGGSGYAFDIWGQGTMVTVSSDDDKSFLEQKLISEEDLNSAVDHHHHHH | 0.76
MJF022, C06 (VL/GS3/VH) scFv with VL V15R (scFv, Kabat positions) scFv: DIQMTQSPLSLSASRGDRVTITCQASRDIRNYLNWYQQKPGKAPKLLIYDASSLQTGVPSRFGGSGSGTDFSFTIGSLQPEDIATYYCQQFDSLPHTFGQGTKLEIKGGGGSGGGGSGGGGSEVQLLESGGGLVQPGGSLRLSCAASGFTFSIYRMQWVRQAPGKGLEWVSGISPSGGTTWYADSVKGRFTISRDNSKNTLYLQMNSLRAEDTAVYYCARWSGGSGYAFDIWGQGTMVTVSSDDDKSFLEQKLISEEDLNSAVDHHHHHH | 0.76
MJF027, C06 (VL/GS3/VH) scFv with VL Q24K (scFv, Kabat positions) scFv: DIQMTQSPLSLSASVGDRVTITCKASRDIRNYLNWYQQKPGKAPKLLIYDASSLQTGVPSRFGGSGSGTDFSFTIGSLQPEDIATYYCQQFDSLPHTFGQGTKLEIKGGGGSGGGGSGGGGSEVQLLESGGGLVQPGGSLRLSCAASGFTFSIYRMQWVRQAPGKGLEWVSGISPSGGTTWYADSVKGRFTISRDNSKNTLYLQMNSLRAEDTAVYYCARWSGGSGYAFDIWGQGTMVTVSSDDDKSFLEQKLISEEDLNSAVDHHHHHH | 1.12
MJF021, C06 (VL/GS3/VH) scFv with VL V15I (scFv, Kabat positions) scFv: DIQMTQSPLSLSASIGDRVTITCQASRDIRNYLNWYQQKPGKAPKLLIYDASSLQTGVPSRFGGSGSGTDFSFTIGSLQPEDIATYYCQQFDSLPHTFGQGTKLEIKGGGGSGGGGSGGGGSEVQLLESGGGLVQPGGSLRLSCAASGFTFSIYRMQWVRQAPGKGLEWVSGISPSGGTTWYADSVKGRFTISRDNSKNTLYLQMNSLRAEDTAVYYCARWSGGSGYAFDIWGQGTMVTVSSDDDKSFLEQKLISEEDLNSAVDHHHHHH | 0.81
MJF024, C06 (VL/GS3/VH) scFv with VL V15A (scFv, Kabat positions) scFv: DIQMTQSPLSLSASAGDRVTITCQASRDIRNYLNWYQQKPGKAPKLLIYDASSLQTGVPSRFGGSGSGTDFSFTIGSLQPEDIATYYCQQFDSLPHTFGQGTKLEIKGGGGSGGGGSGGGGSEVQLLESGGGLVQPGGSLRLSCAASGFTFSIYRMQWVRQAPGKGLEWVSGISPSGGTTWYADSVKGRFTISRDNSKNTLYLQMNSLRAEDTAVYYCARWSGGSGYAFDIWGQGTMVTVSSDDDKSFLEQKLISEEDLNSAVDHHHHHH | 0.89
MJF023, C06 (VL/GS3/VH) scFv with VL L11G, V15N (scFv, Kabat positions) scFv: DIQMTQSPLSGSASNGDRVTITCQASRDIRNYLNWYQQKPGKAPKLLIYDASSLQTGVPSRFGGSGSGTDFSFTIGSLQPEDIATYYCQQFDSLPHTFGQGTKLEIKGGGGSGGGGSGGGGSEVQLLESGGGLVQPGGSLRLSCAASGFTFSIYRMQWVRQAPGKGLEWVSGISPSGGTTWYADSVKGRFTISRDNSKNTLYLQMNSLRAEDTAVYYCARWSGGSGYAFDIWGQGTMVTVSSDDDKSFLEQKLISEEDLNSAVDHHHHHH | 0.68
MJF033, C06 (VL/GS3/VH) scFv with VL T20R, R30N; VH S21E (scFv, name in Kabat numbering, Kabat positions) scFv: DIQMTQSPLSLSASVGDRVRITCQASRDINNYLNWYQQKPGKAPKLLIYDASSLQTGVPSRFGGSGSGTDFSFTIGSLQPEDIATYYCQQFDSLPHTFGQGTKLEIKGGGGSGGGGSGGGGSEVQLLESGGGLVQPGGSLRLECAASGFTFSIYRMQWVRQAPGKGLEWVSGISPSGGTTWYADSVKGRFTISRDNSKNTLYLQMNSLRAEDTAVYYCARWSGGSGYAFDIWGQGTMVTVSSDDDKSFLEQKLISEEDLNSAVDHHHHHH | 0.78
